Results published in patent publication US20260193366A1 (APOGEE THERAPEUTICS, published 2026).
Positions count from the first letter of the chain named.

T1: human IL-4Rα (human, UniProt P24394 26-232)
T1 construct: also called Hu IL-4Rα; hIL-4Rα
T1 sequence: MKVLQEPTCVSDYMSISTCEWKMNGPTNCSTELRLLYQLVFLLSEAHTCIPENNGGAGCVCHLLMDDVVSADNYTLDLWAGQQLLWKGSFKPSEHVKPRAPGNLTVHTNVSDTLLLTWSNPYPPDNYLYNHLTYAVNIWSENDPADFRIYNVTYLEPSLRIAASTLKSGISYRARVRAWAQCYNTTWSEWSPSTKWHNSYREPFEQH

T2: cynomolgus monkey IL-4Rα (cynomolgus monkey, UniProt P24394 26-231 (human entry), limits assumed)
T2 construct: also called Cyno IL-4Rα; cyIL-4Rα
T2 chain: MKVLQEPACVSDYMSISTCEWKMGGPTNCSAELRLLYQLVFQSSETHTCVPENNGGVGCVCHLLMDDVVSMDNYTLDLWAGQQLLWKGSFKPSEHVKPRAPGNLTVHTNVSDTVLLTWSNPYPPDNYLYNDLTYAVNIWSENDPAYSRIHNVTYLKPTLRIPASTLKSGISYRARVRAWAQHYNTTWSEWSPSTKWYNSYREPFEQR

T3: hIL-4Rα on cells (human, UniProt P24394 26-825)
T3 sequence: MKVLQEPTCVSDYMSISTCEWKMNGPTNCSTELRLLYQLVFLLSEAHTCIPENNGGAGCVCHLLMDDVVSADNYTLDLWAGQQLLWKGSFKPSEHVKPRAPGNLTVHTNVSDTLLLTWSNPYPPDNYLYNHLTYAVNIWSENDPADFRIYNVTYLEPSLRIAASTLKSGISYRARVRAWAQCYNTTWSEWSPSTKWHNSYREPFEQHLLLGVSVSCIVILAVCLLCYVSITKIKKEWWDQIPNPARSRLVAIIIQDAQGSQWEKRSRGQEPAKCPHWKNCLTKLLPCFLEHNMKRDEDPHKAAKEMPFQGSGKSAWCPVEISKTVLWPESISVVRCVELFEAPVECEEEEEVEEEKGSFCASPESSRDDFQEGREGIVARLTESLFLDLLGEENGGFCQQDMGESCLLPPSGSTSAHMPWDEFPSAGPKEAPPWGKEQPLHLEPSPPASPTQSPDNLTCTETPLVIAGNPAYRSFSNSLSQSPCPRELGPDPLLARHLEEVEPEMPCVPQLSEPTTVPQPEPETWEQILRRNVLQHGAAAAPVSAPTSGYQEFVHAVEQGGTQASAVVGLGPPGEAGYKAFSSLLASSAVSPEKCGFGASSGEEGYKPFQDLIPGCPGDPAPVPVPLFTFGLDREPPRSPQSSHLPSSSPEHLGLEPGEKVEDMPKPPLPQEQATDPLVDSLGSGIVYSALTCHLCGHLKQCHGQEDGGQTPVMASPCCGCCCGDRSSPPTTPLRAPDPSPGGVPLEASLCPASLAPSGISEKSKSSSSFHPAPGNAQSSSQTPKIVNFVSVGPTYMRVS

B1: Construct 9 (mAb418) (antibody, IgG4, V domains shown)
VH: EVQLVESGGGLEQPGGSLRLSCAGSGFTFTDFAMTWVRQAPGKGLEWVSSISGSGGNIYYADSVKGRFTISRDNSKNTLYLQMNSLRAEDTAVYYCAKDRLSVTVRPRYYGLDVWGQGTTVTVSS
VL: DIVMTQSPLSLPVTPGEPASISCRSSQSLLYSIGKNYVDWYLQKSGQSPQLLIYLGNNRATGVPDRFSGSGSGTDFTLKISRVEAEDVGFYYCMQALGSPYTFGQGTKLEIK
notes: VH/VL only
B2: Construct 17 (mAb425) (antibody, IgG4, V domains shown)
VH: B1 VH with T30R, G56S, N57S, I58T
VL: B1 VL with R24T, S25A, K35Y, N57S, N58K, T61S, L97Y, G98N
notes: VH/VL only
B3: Construct 18 (mAb426) (antibody, IgG4, V domains shown)
VH: B1 VH with T30R, G56D, I58T, V103K, V105I
VL: B1 VL with R24T, N58K, T61S, A96S, G98T
notes: VH/VL only
B4: Construct 12 (mAb421) (antibody, IgG4, V domains shown)
VH: B1 VH with T30R, V103K, V105I
VL: B1 VL with L29V, K35Y, N58K, T61S, A96S, G98T
notes: VH/VL only
B5: Construct 11 (mAb420) (antibody, IgG4, V domains shown)
VH: B1 VH with T30R, S54D, G56S, I58T, V103K, V105I
VL: B1 VL with L29V, K35Y, N58K, T61S, A96S, G98Q, S99T
notes: VH/VL only
B6: Construct 20 (mAb428) (antibody, IgG4, V domains shown)
VH: B1 VH with T30R, G56D, I58T, V103I
VL: B1 VL with R24T, K35Y, N58K, T61S, A96S, G98Q, S99T, T102V
notes: VH/VL only
B7: Construct 16 (mAb424) (antibody, IgG4, V domains shown)
VH: B1 VH with T30R, D31T, F32Y, G56D, V105I
VL: B1 VL with R24T, S25A, K35Y, N58K, T61S, A96S, G98T
notes: VH/VL only
B8: Construct 21 (mAb429) (antibody, IgG4, V domains shown)
VH: B1 VH with T30R, D31T, F32Y, L101V, V103I, T104Y
VL: B1 VL with R24T, S25A, K35Y, N57S, N58K, T61S, A96S, G98T
notes: VH/VL only
B9: Construct 19 (mAb427) (antibody, IgG4, V domains shown)
VH: B1 VH with T30R, D31T, F32Y, G56D, I58T, L101V, V103I, V105I
VL: B1 VL with R24T, K35Y, N58K, T61S
notes: VH/VL only
B10: Construct 22 (mAb430) (antibody, IgG4, V domains shown)
VH: B1 VH with T30R, G56S, N57S, I58T
VL: B1 VL with L29V, K35Y, N58K, T61S, A96S, G98T
notes: VH/VL only
B11: Construct 10 (mAb419) (antibody, IgG4, V domains shown)
VH: B1 VH with T30R, S54D, G56S, I58T, V103K, V105I
VL: B1 VL with K35Y, N58K, T61S
notes: VH/VL only

biological target: T1, human IL-4Rα; experiment: SPR, Carterra LSA;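 note: antibodies captured on an anti-human Fc sensor chip, antigen injected at several concentrations, association and dissociation rates fitted with a 1:1 Langmuir model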
Description: (§1) Binding affinity (KD) of antibodies to human and cynomolgus monkey IL-4Rα was determined through surface plasmon resonance (SPR) using a Carterra LSA. Briefly, an HC30M sensor chip that was previously functionalized with a polyclonal mixture of goat anti-human Fc antibody and used to capture purified antibodies at a level between 100-1000 RLU. […] Regeneration of the chip between different concentrations of antigen was performed with 200 mM phosphoric acid and antibody was captured again as previously described. Association and dissociation rate constants were subsequently determined through fitting to a 1:1 Langmuir binding model using the Kinetics Software from Carterra from which a KD value was derived.

| KD Relative to Dupilumab | Kd | Binder |
| --- | --- | --- |
| 0.76 | 0.00862 nM | B1 |
| 1.49 | 0.0169 nM | B2 |
| 2.65 | 0.03 nM | B3 |
| 1.91 | 0.0215 nM | B4 |
| 1.17 | 0.0132 nM | B5 |
| 1.41 | 0.0159 nM | B6 |
| 1.4 | 0.0158 nM | B7 |
| 0.76 | 0.00857 nM | B8 |
| 3.19 | 0.036 nM | B9 |
| 0.77 | 0.00866 nM | B10 |
| 1.1 | 0.0125 nM | B11 |

Biological target: T2, cynomolgus monkey IL-4Rα
Experiment: SPR, Carterra LSA;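 note: antibodies captured on an anti-human Fc sensor chip, antigen injected at several concentrations, association and dissociation rates fitted with a 1:1 Langmuir model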
Description: as §1

| KD Relative to Dupilumab | Kd | Binder |
| --- | --- | --- |
| 0.36 | 228 nM | B1 |
| 0.09 | 58.3 nM | B2 |
| 0.09 | 58 nM | B3 |
| 0.02 | 15.1 nM | B4 |
| 0.15 | 92.2 nM | B5 |
| 0.13 | 80.8 nM | B6 |
| 0.14 | 89.3 nM | B7 |
| 0.02 | 14.4 nM | B8 |
| 0.08 | 50.2 nM | B9 |
| 0.05 | 28.7 nM | B10 |
| 0.18 | 114 nM | B11 |

biological target: T3, hIL-4Rα on cells; experiment: cell-based or functional assay

| Relative Inhibition of IL-4 induced pSTAT6 IC50 | Relative Inhibition of IL-13 induced pSTAT6 IC50 | Binder |
| --- | --- | --- |
| 0.761 relative to dupilumab | 1.31 relative to dupilumab | B1 |
| 0.876 relative to dupilumab | 0.863 relative to dupilumab | B2 |
| 0.517 relative to dupilumab | 0.446 relative to dupilumab | B3 |
| 0.457 relative to dupilumab | 0.672 relative to dupilumab | B4 |
| 0.638 relative to dupilumab | 0.924 relative to dupilumab | B5 |
| 1.28 relative to dupilumab | 1.86 relative to dupilumab | B6 |
| 0.825 relative to dupilumab | 1.41 relative to dupilumab | B7 |
| 0.305 relative to dupilumab | 0.447 relative to dupilumab | B8 |
| 0.844 relative to dupilumab | 0.885 relative to dupilumab | B9 |
| 0.749 relative to dupilumab | 0.612 relative to dupilumab | B10 |
| 0.599 relative to dupilumab | 1.38 relative to dupilumab | B11 |

biological target: T3, hIL-4Rα on cells; experiment: cell-based or functional assay; remark: another data set of the same source

| Relative Inhibition of IL-4 induced TARC IC50 | Relative Inhibition of IL-13 induced TARC IC50 | Binder |
| --- | --- | --- |
| 0.593 relative to dupilumab | 0.942 relative to dupilumab | B1 |
| 0.491 relative to dupilumab | 0.789 relative to dupilumab | B2 |
| 0.407 relative to dupilumab | 0.447 relative to dupilumab | B3 |
| 0.38 relative to dupilumab | 0.521 relative to dupilumab | B4 |
| 0.609 relative to dupilumab | 0.877 relative to dupilumab | B5 |
| 3.63 relative to dupilumab | 1.83 relative to dupilumab | B6 |
| 1.63 relative to dupilumab | 1.03 relative to dupilumab | B7 |
| 0.342 relative to dupilumab | 0.313 relative to dupilumab | B8 |
| 0.756 relative to dupilumab | 0.834 relative to dupilumab | B9 |
| 0.488 relative to dupilumab | 0.535 relative to dupilumab | B10 |
| 0.556 relative to dupilumab | 0.856 relative to dupilumab | B11 |

biological target: T3, hIL-4Rα on cells; experiment: cell-based or functional assay; remark: another data set of the same source

| Relative Inhibition of IL-4 induced TF-1 Proliferation IC50 | Relative Inhibition of IL-13 induced TF-1 Proliferation IC50 | Binder |
| --- | --- | --- |
| 0.503 relative to dupilumab | 1.34 relative to dupilumab | B1 |
| 0.729 relative to dupilumab | 0.844 relative to dupilumab | B2 |
| 0.626 relative to dupilumab | 0.606 relative to dupilumab | B3 |
| 0.526 relative to dupilumab | 0.87 relative to dupilumab | B4 |
| 0.455 relative to dupilumab | 1.72 relative to dupilumab | B5 |
| 1.12 relative to dupilumab | 1.38 relative to dupilumab | B6 |
| 1.04 relative to dupilumab | 1.44 relative to dupilumab | B7 |
| 0.509 relative to dupilumab | 0.498 relative to dupilumab | B8 |
| 0.835 relative to dupilumab | 0.55 relative to dupilumab | B9 |
| 0.746 relative to dupilumab | 0.495 relative to dupilumab | B10 |
| 0.431 relative to dupilumab | 1.39 relative to dupilumab | B11 |

biological target: T3, hIL-4Rα on cells; experiment: FACS on HEK293 cells, competitor biotin-hIL-4;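 note: HEK293 cells stably co-expressing hIL-13Rα and hIL-4Rα, stained for 1 h at 4 °C, read-out as mean fluorescence intensity by flow cytometry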
Description: Briefly, HEK293 previously transduced to stably express both hIL-13Rα and hIL-4Rα were cultured and harvested. Cells were seeded at 200,000 cells in 100 uL per well. Cells were washed and the supernatant discarded. […] The cells were stained in this mixture at 4° C. for 1 hour. […] Cells were incubated 4° C. for 1 hour, protected from light. Cells were then washed and the MFI of cells in each well were recorded by FACS using a BD FACSCanto II. Subsequent data were analyzed using GraphPad Prism.

| Relative Blockade of IL-4 Binding IC50 | Binder |
| --- | --- |
| 0.757 relative to dupilumab | B1 |
| 1.11 relative to dupilumab | B2 |
| 0.85 relative to dupilumab | B3 |
| 1.07 relative to dupilumab | B4 |
| 0.977 relative to dupilumab | B5 |
| 1.44 relative to dupilumab | B6 |
| 0.895 relative to dupilumab | B7 |
| 0.749 relative to dupilumab | B8 |
| 0.867 relative to dupilumab | B9 |
| 0.829 relative to dupilumab | B10 |
| 0.992 relative to dupilumab | B11 |

biological target: T3, hIL-4Rα on cells; experiment: FACS on HEK293 cells, competitor biotin-hIL-13;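 note: stably transduced cells co-expressing both receptor chains, stained cold, with cell-bound signal read as mean fluorescence intensity by flow cytometry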

| Relative Blockade of IL-13 Binding IC50 | Binder |
| --- | --- |
| 0.911 relative to dupilumab | B1 |
| 1.17 relative to dupilumab | B2 |
| 0.813 relative to dupilumab | B3 |
| 0.921 relative to dupilumab | B4 |
| 0.928 relative to dupilumab | B5 |
| 1.14 relative to dupilumab | B6 |
| 0.904 relative to dupilumab | B7 |
| 0.706 relative to dupilumab | B8 |
| 1.02 relative to dupilumab | B9 |
| 0.785 relative to dupilumab | B10 |
| 0.922 relative to dupilumab | B11 |
